T1: GST-GRF4 (UniProt Q6ZIK5)
T1 sequence: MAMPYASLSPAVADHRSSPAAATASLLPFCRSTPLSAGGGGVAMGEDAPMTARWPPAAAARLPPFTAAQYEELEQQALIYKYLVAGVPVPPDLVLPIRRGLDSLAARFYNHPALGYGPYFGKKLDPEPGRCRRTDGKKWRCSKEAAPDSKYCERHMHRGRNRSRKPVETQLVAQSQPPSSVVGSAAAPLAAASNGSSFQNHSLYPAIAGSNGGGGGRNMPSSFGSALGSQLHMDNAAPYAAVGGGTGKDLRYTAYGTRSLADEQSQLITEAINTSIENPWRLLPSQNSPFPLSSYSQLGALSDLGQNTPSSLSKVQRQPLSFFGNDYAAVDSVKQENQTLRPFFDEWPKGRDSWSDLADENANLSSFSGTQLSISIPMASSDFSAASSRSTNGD

T2: GST-GRF4 (UniProt Q6ZIK5 1-394)
T2 sequence: T1 sequence

B1: MYB61 promoter motif 2 probe (within P8) (dsDNA)
DNA 1: CAAAAAGGCTGCGGTAATTAAGTCACAGTA
DNA 2: TACTGTGACTTAATTACCGCAGCCTTTTTG

Assays:
[1] = target: T1, GST-GRF4; assay: EMSA; conditions: EMSA binding buffer (Beyotime; composition, salt and pH not given), 4 °C; unlabeled competitor 50-, 100- and 500-fold
[2] = target: T2, GST-GRF4; assay: EMSA; EMSA binding buffer (Beyotime; composition, salt and pH not given), 4 °C; unlabeled competitor 50-, 100- and 500-fold; conditions: protein: recombinant; tags: N-terminal GST (pGEX-6P-1); label: biotin; blunt

| Molecule | binding [1] | binding result [2] |
| --- | --- | --- |
| AATCTGTGCTCCAATCCAAGAAGATCATCTCTGGCACCTCTCAAGATGCTAAGCAATCAGCTGTGAGAACCAGGCCTATGCTGATGATTGCTTTTGCAGAGTTACAAACAGCATGATTTCCTCACTGGCCGTATTCTCGCTCAGAAGCAAATCCCAAT (double strand) [MYB61 promoter P1 fragment] | no binding |  |
| B1 |  | binds |

From publication PMC7566476, “MYB61 is regulated by GRF4 and promotes nitrogen utilization and biomass production in rice”
